Laboratory results: patent US12053530B2, “Plectin-1 binding antibodies and uses thereof” (ZIELBIO, INC., priority 2017, dated 2024)

Target: plectin-1 (human recombinant protein) (Homo sapiens, UniProt Q15149)
Assay: Affinity of anti-plectin-1 antibodies (FIGS. 1A-1B)
Format: binding
Settings: human recombinant protein and pancreatic cell lines
Source text: FIGS. 1A-1B show representative data for affinity and specificity of an anti-plec1 antibody on human recombinant protein (FIG. 1A) and human (YapC and L3.6pl) and mouse (Han14.3) pancreatic cell lines (FIG. 1B).

Chain of plectin-1 (human recombinant protein) (Q15149 whole entry): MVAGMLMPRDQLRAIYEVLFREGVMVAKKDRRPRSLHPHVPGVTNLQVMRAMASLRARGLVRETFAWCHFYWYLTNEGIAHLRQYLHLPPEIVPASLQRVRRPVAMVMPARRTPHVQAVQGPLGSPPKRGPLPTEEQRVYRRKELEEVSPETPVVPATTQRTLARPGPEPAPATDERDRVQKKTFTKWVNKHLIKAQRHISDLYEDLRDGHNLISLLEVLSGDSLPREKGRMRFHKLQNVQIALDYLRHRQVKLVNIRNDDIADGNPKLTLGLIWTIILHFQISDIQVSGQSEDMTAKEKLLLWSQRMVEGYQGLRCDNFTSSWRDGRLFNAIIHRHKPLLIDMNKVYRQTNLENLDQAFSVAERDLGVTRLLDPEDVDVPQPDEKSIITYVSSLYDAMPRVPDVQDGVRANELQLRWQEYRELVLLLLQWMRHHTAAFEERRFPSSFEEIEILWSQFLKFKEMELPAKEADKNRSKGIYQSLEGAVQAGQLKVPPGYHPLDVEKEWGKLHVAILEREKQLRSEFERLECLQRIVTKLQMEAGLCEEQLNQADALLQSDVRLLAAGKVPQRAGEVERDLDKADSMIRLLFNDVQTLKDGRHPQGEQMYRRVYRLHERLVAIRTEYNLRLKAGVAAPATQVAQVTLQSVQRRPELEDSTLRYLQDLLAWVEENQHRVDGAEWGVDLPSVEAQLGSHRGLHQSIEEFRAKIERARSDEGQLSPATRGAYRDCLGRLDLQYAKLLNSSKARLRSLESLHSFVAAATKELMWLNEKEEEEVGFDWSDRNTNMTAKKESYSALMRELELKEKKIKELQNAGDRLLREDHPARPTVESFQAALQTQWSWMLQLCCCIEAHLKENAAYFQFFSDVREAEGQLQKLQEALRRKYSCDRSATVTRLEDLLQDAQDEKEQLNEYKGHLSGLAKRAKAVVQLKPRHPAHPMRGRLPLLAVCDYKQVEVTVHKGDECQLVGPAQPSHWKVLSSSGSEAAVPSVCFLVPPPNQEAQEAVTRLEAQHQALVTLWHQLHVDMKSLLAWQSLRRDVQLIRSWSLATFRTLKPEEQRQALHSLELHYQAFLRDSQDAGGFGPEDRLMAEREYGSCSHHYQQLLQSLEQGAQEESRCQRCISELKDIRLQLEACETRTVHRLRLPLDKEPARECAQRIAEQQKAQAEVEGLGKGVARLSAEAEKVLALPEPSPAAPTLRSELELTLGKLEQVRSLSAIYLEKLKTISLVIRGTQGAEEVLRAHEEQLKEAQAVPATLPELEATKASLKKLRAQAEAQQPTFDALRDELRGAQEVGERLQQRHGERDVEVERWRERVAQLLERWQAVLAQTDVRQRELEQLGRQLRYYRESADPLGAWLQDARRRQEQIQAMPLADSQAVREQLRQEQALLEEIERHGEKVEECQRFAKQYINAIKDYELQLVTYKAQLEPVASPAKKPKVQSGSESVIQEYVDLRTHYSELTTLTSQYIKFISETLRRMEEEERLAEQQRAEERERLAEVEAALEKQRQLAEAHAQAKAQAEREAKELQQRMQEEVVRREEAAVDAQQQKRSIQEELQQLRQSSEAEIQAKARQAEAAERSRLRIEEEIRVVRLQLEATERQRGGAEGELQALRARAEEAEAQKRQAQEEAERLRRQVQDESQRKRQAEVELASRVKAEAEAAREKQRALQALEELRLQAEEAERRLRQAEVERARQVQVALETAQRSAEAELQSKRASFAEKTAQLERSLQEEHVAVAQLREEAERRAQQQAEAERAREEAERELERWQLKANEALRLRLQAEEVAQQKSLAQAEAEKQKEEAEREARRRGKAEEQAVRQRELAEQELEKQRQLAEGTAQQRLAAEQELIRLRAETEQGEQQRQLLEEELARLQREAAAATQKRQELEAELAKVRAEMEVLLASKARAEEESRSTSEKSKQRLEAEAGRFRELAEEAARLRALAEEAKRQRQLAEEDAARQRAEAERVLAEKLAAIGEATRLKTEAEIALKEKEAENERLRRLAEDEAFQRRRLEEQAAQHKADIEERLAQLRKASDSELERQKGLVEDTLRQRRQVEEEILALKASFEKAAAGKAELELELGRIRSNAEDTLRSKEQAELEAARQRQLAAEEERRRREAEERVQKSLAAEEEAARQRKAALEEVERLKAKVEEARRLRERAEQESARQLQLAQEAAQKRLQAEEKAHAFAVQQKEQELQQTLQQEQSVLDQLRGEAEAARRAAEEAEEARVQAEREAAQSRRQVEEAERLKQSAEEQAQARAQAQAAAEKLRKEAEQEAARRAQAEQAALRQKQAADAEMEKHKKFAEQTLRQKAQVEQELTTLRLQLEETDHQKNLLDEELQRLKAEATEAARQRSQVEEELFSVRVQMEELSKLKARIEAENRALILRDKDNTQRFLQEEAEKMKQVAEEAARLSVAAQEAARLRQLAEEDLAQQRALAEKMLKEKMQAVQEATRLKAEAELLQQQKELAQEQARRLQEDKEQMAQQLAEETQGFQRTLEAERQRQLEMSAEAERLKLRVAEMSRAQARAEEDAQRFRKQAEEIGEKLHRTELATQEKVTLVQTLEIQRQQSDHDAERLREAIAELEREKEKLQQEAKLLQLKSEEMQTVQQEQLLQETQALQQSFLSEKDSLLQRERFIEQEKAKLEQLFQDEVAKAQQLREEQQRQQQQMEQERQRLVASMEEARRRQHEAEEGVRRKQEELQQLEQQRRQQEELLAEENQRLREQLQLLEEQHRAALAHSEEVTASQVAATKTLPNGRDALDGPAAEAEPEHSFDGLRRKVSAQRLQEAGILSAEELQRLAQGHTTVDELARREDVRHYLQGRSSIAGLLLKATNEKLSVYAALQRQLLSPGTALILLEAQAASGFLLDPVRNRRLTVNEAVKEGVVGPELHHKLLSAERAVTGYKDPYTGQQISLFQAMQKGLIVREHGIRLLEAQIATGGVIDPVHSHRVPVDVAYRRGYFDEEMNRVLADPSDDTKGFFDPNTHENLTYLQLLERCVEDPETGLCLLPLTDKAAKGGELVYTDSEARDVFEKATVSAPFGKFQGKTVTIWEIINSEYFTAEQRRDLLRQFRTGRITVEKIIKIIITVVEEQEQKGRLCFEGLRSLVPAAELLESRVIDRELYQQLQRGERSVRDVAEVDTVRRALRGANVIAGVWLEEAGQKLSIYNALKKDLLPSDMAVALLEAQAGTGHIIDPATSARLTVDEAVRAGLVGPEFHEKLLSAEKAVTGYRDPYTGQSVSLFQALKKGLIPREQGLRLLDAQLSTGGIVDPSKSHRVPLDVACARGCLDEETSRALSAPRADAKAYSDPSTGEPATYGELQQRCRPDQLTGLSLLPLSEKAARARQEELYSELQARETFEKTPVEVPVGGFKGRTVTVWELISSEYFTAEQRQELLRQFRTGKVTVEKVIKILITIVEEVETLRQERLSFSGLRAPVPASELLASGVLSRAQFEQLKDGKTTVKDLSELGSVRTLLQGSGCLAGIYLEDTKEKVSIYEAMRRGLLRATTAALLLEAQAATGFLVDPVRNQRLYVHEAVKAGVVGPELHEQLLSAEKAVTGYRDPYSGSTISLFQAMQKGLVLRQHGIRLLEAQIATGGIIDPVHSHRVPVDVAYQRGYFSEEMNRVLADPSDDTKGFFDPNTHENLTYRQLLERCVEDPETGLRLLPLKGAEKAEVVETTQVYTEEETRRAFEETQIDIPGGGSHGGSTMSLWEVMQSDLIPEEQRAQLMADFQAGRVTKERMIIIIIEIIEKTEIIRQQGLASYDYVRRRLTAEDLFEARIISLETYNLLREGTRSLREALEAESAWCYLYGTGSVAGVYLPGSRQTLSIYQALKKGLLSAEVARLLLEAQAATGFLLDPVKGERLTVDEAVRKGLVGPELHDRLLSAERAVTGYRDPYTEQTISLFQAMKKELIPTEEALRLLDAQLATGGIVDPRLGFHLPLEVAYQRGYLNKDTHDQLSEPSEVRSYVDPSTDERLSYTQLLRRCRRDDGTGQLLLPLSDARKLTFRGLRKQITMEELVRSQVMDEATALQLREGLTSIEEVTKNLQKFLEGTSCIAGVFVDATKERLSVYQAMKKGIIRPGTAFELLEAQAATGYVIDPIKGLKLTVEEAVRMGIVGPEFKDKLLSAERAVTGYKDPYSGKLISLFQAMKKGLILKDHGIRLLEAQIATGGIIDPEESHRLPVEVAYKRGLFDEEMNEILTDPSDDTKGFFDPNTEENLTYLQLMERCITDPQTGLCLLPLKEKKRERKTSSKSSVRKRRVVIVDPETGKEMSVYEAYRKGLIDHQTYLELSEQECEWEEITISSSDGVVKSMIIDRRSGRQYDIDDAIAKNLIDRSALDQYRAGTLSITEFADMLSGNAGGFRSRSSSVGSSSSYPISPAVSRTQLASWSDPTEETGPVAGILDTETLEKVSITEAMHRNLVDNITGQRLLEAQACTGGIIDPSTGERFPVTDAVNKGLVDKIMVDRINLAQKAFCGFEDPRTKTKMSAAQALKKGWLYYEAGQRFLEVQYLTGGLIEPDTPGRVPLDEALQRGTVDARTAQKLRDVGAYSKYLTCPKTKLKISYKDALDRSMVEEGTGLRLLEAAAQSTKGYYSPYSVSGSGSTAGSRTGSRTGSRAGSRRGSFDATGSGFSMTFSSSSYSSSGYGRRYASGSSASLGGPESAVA

B1: Pab2: anti-plectin-1 antibody; heavy chain variable region SEQ ID NO: 23, light chain variable region SEQ ID NO: 45 (antibody, V domains shown)
VH: EVQLVESGGDLVKPGGSLKLSCAASGFTFSRYGMSWVRQTPDKRLEWVATISIGGTYTYYPDSMKGRFTISRDNAKNTLYLQMSSLKSEDTAMYYCARRGYGNYSYYGMDYWGQGTSVTVSS
VL: DIVMTQAAFSNPVTLGTSASISCRSSKSLLHSNGITYLYWYLQKPGQSPQLLIYQMSNLASGVPDRFSSSGSGTDFTLRISRVEAEDVGVYYCAQNLELPLTFGAGTKLELK
  affinity among anti-plectin-1 antibodies tested: highest affinity
